Measured values taken from publication PMC10020352.

Target: Mu-opioid receptor, P35372
Sequence (P35372 whole entry): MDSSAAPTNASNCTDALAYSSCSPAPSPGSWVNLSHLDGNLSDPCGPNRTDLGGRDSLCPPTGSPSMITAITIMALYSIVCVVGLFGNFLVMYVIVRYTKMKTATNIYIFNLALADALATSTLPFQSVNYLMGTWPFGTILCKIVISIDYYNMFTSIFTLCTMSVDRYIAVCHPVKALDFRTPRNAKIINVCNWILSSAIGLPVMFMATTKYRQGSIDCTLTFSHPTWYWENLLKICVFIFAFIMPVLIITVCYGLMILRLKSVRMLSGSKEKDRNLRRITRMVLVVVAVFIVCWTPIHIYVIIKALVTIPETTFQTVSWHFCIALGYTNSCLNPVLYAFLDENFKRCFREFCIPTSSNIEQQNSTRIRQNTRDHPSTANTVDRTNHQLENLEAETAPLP

B1: Dyn1-7 (peptide)
chain: YGGFLRR
modifications: not checked
- Activity (EC50, nM) for cAMP in MOP receptor over-expressing HEK293 cells: 3740 nM
